# According to publication doi:10.1101/209445, “Large conformational changes in FtsH create an opening for substrate entry” (bioRxiv, 2017):
# Columns and labels:
# [1] = molecular target: the molecule itself; test: negative-stain electron microscopy; SEC peak 1 (dodecamer fraction), 3% uranyl acetate; 15000 particles, 2D class averages; 3D map with no symmetry imposed, 25 Å; two hexamers in a single LMNG micelle
# [2] = molecular target: the molecule itself; test: native gel or EMSA; Native PAGE (Mini-PROTEAN TGX precast gel) of SEC peak 2 (13.4 mL)
protein,measurement,setting,value
"Full-length Aquifex aeolicus FtsH (enzyme, UniProt O67077 1-634, looked up, The protomer is the molecule; The construct came from U. Baumann; also called AaFtsH; LMNG-AaFtsH; source: E. coli, overexpressed (pET22a); extracted from purified membranes with LMNG; purified (Ni-NTA/HisTrap, SEC Superose 6)) MNALKNFFIWAIIIGAAIVAFNLFEGKREFTTKVSLNEVVKLVEEGKVSYAEVRGNTAIIQTKDGQKLEVTLPPNTNLVDKMVEKGVRVEVANPEPPGGWLVNVFLSWLPILFFIGIWIFLLRQMSGGGNVNRAFNFGKSRAKVYIEEKPKVTFKDVAGIEEVKEEVKEIIEYLKDPVKFQKLGGRPPKGVLLYGEPGVGKTLLAKAIAGEAHVPFISVSGSDFVEMFVGVGAARVRDLFETAKKHAPCIIFIDEIDAVGRARGAIPVGGGHDEREQTLNQLLVEMDGFDTSDGIIVIAATNRPDILDPALLRPGRFDRQIFIPKPDVRGRYEILKVHARNKKLAKDVDLEFVARATPGFTGADLENLLNEAALLAARKGKEEITMEEIEEALDRITMGLERKGMTISPKEKEKIAIHEAGHALMGLVSDDDDKVHKISIIPRGMALGVTQQLPIEDKHIYDKKDLYNKILVLLGGRAAEEVFFGKDGITTGAENDLQRATDLAYRMVSMWGMSDKVGPIAIRRVANPFLGGMTTAVDTSPDLLREIDEEVKRIITEQYEKAKAIVEEYKEPLKAVVKKLLEKETITCEEFVEVFKLYGIELKDKCKKEELFDKDRKSEENKELKSEEVKEEVV",stoichiometry N,[1],12
same,stoichiometry N,[2],6
